The record followed here is patent US20230329245A1, “COMPOSITIONS AND METHODS OF USE THEREOF” (Curie Co. Inc., priority 2020, published 2023).

The series can be described thus: Colorimetric hydroxamate Tgase activity assay. Type of series: biochemical. As to conditions: zymogen purified on Ni-IMAC resin and desalted. On the procedure:
The cells were lysed using a high-pressure homogenizer at pressures from 15000-20000 psi. The crude lysates were clarified through centrifugation at 15000×g for up to 60 minutes. The clarified lysate containing pro-Tgase SEQ ID NO:3 was evaluated by sodium dodecyl sulfate polyacrylamide gel electrophoresis (SDS-PAGE) and spectroscopy (A280 nm). The clarified lysate was further purified by affinity column on a Ni-IMAC resin and desalted.

B1: Pro-Tgase SEQ ID NO:3: variant of Streptomyces mobaraensis Tgase zymogen form (pro-Tgase), SEQ ID NO:3 (protein)
chain: MDNGAGEETKSYAETYRLTADDVANINALNESAPAASSAGPSFRAPDPDDRVTPPAEPLDRMPDPYRPSYGRAETVVNNYIRKWQQVYSHRDGRKQQMTEEQREWLSYGCVGVTWVNSGQYPTNRLAFASFDEDRFKNELKNGRPRSGETRAEFEGRVAKESFDEEKGFQRAREVASVMNRALENAHDESAYLDNLKKELANGNDALRNEDARSPFYSALRNTPSFKERNGGNHDPSRMKAVIYSKHFWSGQDRSSSADKRKYGDPDAFRPAPGTGLVDMSRDRNIPRSPTSPGEGFVNFDYGWFGAQTEADADKTVWTHGNHYHAPNGSLGAMHVYESKFRNWSEGYSDFDRGAYVITFIPKSWNTAPDKVKQGWPLEHHHHHH
B1: the “Tgase activity (colorimetric hydroxamate activity assay)” value is “little to no activity”.
